Measurements taken from PMC3846842.
Several values for one entry are separate records, joined by “and”; a condition that tells them apart may be missing. Identical values can stand only once.

Assays:
[1] = molecular target: BtcA (Bordetella pertussis); test: cross-linking; BtcA about 4 mg/ml in PBS with serially diluted EGS (from 3 mM), 30 min at RT, SDS-PAGE
[2] = molecular target: BtcA (Bordetella pertussis); test: SEC-RALS; BtcA (525 ug) on Superdex 200 10/300 with triple detector array; 20 mM Tris pH 8.0, 350 mM NaCl, 20 mM EDTA
[3] = molecular target: BteA287 (BteA N-terminal domain, residues 1-287) (Bordetella pertussis); test: MST; labeled BteA287 or BteA32-287 (NT-495 BLUE-NHS) mixed with BtcA serially diluted from 200 uM or 100 uM; 20 mM Tris 8, 350 mM NaCl, 20 mM EDTA, 0.05% Tween-20; 20°C; logistic dose-response fit, three measurements averaged
[4] = molecular target: BteA32-287 (Bordetella pertussis); test: as above
[5] = molecular target: BteA287 (BteA N-terminal domain, residues 1-287) (Bordetella pertussis); test: MALDI-TOF MS; BtcA-BteA287 complex, linear mode, m/z 20,000 to 150,000; the methods describe EGS cross-linking of the complex before MALDI-TOF analysis

Q: With BtcA (natural protein) as the substance, how does the stoichiometry N [1] read?
A: 2

Q: What about the stoichiometry N [2] of the same substance?
A: 2

Q: And the Kd [3]?
A: 6.6 µM

Q: And the Kd [4]?
A: 14 µM

Q: And the stoichiometry N (BtcA per BteA287) [5]?
A: 1 and 2

Q: For “BteA287 (BteA N-terminal domain, residues 1-287) (domain or fragment)”, which stoichiometry N [5] is on record?
A: 2
